# Reference: publication PMC12363406, “Human IgE monoclonal antibodies define two unusual epitopes trapping dog allergen Can f 1 in different conformations” (Protein Science : A Publication of the Protein Society, 2025)
# Molecular target: T1, natural Can f 1 (Canis lupus familiaris (dog))
# T1 construct: Can f 1, major dog allergen, lipocalin, Canis familiaris; isolated from the natural source; model in the complex with 1J11 Fab starts at Ala5; numbers count on: the mature protein; Natural preparation; also called nCan f 1
# T1 sequence (chain, as listed by the source): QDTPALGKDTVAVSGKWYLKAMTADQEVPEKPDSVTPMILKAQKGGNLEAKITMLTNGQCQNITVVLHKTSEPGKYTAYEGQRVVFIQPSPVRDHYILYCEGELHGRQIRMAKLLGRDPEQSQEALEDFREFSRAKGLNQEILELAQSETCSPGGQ
# Experiment: SPR; localized surface plasmon resonance (LSPR) on an OpenSPR (Nicoya Lifesciences)
# Details: both partners purified
row,Kd,Binder
1,3.6 ± 1.3 nM,"human IgE monoclonal antibody 12F3 (antibody, V domains shown, variable region as the heavy chain of m5 (PDB 9NPI); as the light chain of m5 (PDB 9NPI); Human IgE; details of isolation, production and purification are in Supplementary material; also called hIgE mAb 12F3; IgE mAb 12F3; source: B cell hybridomas from allergic subjects; copies: 2 + 2) VH: QVQLVQSGAEVQKPGSSVKVSCKASGGTFSRYPLIWVRQTPGQGLEWMGGIFPVIGRTNYAEKFQGRVTITADESTSTAYMELNSLTSEDTAVYYCARLDTYEILGYGTDVWGQGTTVTVSS VL: EIVLTQSPATLSLSPGERATLSCRASESVSSSVAWYQQKFGQAPRLLIYDASNRATGIPARFSGSGSGTDFTLTISSLEPEDFAVYYCQLRSNWPPLTFGGGTKVQIK"
2,0.2 ± 0.1 nM,"human IgE monoclonal antibody 1J11 (antibody, V domains shown, variable region as the heavy chain of m4 (PDB 8VQF); as the light chain of m4 (PDB 8VQF); Human IgE; details of isolation, production and purification are in Supplementary material; also called hIgE mAb 1J11; IgE mAb 1J11; source: B cell hybridomas from allergic subjects; copies: 2 + 2) VH: QVQLVESGGGVVQPGSSLRLSCAVSGFTVRSYGMHWVRQAPGKGLEWVALILFDGTTKHYADSVKGRFTISRDNSKDTLYLQMTSLGAEDTAMYYCVRDFNQFVKRFVDGPAFDLWGQGTRVTVSS VL: SYELTQPPSVSVSPGQTANITCSGDKLGDKFTSWYQQRPGQSPVLVIYQDIERPSGIPERFSGSNSGNTATLTISGTQALDEADYYCQAWDTSTVVFGGGTRLTVL"
